Measurements from patent US20220119534A1 (DRAGONFLY THERAPEUTICS, published 2022).
Several values for one entry are separate records, joined by “and”; a condition that tells them apart may be missing. Equal values may be shown once.

Assays:
[1] = target: T1, mFc-hNKG2D (recombinant mFc-tagged human NKG2D dimer) (human, UniProt P26718 73-216); assay: SPR; control sample
T1 construct: extracellular domain; Made in house; not shown: mouse Fc tag
T1 sequence (looked up): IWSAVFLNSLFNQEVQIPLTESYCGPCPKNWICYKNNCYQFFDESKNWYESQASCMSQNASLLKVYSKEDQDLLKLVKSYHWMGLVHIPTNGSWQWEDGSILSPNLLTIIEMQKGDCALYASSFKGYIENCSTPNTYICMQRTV

[2] = target: T2, Human CD16a V158 (FcγRIIIa V158) (human, UniProt P08637 17-208, biotinylated); assay: SPR; control sample
T2 construct: Bought recombinant receptor; also called hCD16aV; hFcγRIIIa V158

[3] = target: T3, Human CLEC12A expressed on cells (Ba/F3-hCLEC12A, PL21, HL60) (human, UniProt Q5QGZ9 1-265); assay: cell-based or functional assay
T3 sequence: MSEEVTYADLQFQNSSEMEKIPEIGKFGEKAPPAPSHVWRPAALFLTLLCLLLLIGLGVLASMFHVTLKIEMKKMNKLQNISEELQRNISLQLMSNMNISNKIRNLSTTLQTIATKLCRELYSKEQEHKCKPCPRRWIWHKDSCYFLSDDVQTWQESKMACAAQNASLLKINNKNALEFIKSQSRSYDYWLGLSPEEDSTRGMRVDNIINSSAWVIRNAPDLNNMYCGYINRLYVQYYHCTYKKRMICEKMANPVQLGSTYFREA

[4] = target: T2, Human CD16a V158 (FcγRIIIa V158); assay: SPR; after pH 8, 40C, 2 wks
[5] = target: T2, Human CD16a V158 (FcγRIIIa V158); assay: SPR 25C, biotinylated CD16a V158 captured
[6] = target: T4, Human CLEC12A-His (recombinant, K244 WT) (human, UniProt Q5QGZ9 65-265); assay: SPR, two-state fit (ka1); control (fully purified protein study)
T4 construct: Made in house (Dragonfly Tx); also called hCLEC12A; hCLEC12A-His; not shown: His tag
T4 sequence: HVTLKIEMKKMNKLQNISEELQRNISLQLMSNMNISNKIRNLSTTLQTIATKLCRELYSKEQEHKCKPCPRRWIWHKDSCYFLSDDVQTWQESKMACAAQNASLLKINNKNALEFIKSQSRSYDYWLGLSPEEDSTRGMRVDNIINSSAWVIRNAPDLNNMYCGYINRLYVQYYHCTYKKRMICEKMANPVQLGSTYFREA

[7] = target: T5, human CLEC12A on cells (HL60, PL21, Ba/F3-hCLEC12A) (human, UniProt Q5QGZ9 1-265); assay: flow cytometry, 40 nM, MFI after 2 h 37 C relative to 2 h on ice, HL60 cells
T5 construct: Endogenous on the AML lines HL60 and PL21; brought into mouse Ba/F3 cells by retroviral transduction; The cell line stands under assay; also called CLL-1
T5 sequence: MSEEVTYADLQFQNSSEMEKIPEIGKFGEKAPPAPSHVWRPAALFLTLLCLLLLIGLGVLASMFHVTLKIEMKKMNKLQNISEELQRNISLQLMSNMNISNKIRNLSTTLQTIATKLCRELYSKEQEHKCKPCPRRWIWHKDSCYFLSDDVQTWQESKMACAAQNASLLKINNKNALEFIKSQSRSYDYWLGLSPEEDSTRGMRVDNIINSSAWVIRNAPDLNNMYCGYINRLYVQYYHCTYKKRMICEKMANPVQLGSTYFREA

[8] = target: T6, recombinant human CD32a R131 (human, UniProt P12318 36-218, limits assumed, biotinylated); assay: SPR 25C, steady state
T6 construct: also called FcγRIIa R131
T6 sequence (looked up): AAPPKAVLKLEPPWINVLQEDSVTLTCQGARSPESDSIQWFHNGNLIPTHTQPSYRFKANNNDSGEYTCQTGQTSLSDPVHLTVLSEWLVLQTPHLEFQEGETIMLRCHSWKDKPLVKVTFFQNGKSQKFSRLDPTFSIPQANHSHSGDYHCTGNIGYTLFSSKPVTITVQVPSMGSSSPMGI

[9] = target: T7, human CLEC12A expressed on cells (human, UniProt Q5QGZ9 1-265); assay: flow cytometry, hCLEC12A+ Ba/F3
T7 construct: Transduced isogenic cells or endogenous expression on AML cells; also called RMA-hCLEC12A; Ba/F3-hCLEC12A
T7 sequence: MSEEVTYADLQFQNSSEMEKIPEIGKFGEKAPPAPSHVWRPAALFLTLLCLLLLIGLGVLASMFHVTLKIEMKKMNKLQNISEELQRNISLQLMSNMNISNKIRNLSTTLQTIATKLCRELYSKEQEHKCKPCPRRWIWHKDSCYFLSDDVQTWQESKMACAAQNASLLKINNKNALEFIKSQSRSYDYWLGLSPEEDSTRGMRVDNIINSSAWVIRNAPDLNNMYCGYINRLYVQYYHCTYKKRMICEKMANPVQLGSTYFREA

T2 sequence (P08637 17-208 F176V limits assumed): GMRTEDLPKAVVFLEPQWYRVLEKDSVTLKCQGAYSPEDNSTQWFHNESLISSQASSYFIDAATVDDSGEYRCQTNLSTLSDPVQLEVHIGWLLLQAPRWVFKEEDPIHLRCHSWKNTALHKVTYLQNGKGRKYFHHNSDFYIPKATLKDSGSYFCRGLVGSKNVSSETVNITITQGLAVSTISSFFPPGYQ

B1: AB0089 TriNKET (bispecific antibody, human IgG1, kappa)
chain: QLQLQESGPGLVKPSETLSLTCTVSGFSLTNYGLHWIRQPPGKCLEWIGVIWVGGATDYNPSLKSRVTISVDTSKNQFSLKLSSVQAADTAVYYCAKGDYGDTLDYWGQGTLVTVSSGGGGSGGGGSGGGGSGGGGSDIQMTQSPSSLSASVGDRVTITCHASQNINFWLSWYQQKPGKAPKLLIYEASNLHTGVPSRFSGSGSGTDFTLTISSLQPEDFATYYCQQSHSYPLTFGCGTKLEIKGSDKTHTCPPCPAPELLGGPSVFLFPPKPKDTLMISRTPEVTCVVVDVSHEDPEVKFNWYVDGVEVHNAKTKPREEQYNSTYRVVSVLTVLHQDWLNGKEYKCKVSNKALPAPIEKTISKAKGQPREPRVYTLPPCRDELTKNQVSLTCLVKGFYPSDIAVEWESNGQPENNYKTTPPVLVSDGSFTLYSKLTVDKSRWQQGNVFSCSVMHEALHNHYTQKSLSLSPG
heavy: EVQLVESGGGLVKPGGSLRLSCAASGFTFSSYSMNWVRQAPGKGLEWVSSISSSSSYIYYADSVKGRFTISRDNAKNSLYLQMNSLRAEDTAVYYCARGAPIGAAAGWFDPWGQGTLVTVSSASTKGPSVFPLAPSSKSTSGGTAALGCLVKDYFPEPVTVSWNSGALTSGVHTFPAVLQSSGLYSLSSVVTVPSSSLGTQTYICNVNHKPSNTKVDKKVEPKSCDKTHTCPPCPAPELLGGPSVFLFPPKPKDTLMISRTPEVTCVVVDVSHEDPEVKFNWYVDGVEVHNAKTKPREEQYNSTYRVVSVLTVLHQDWLNGKEYKCKVSNKALPAPIEKTISKAKGQPREPQVCTLPPSRDELTENQVSLTCLVKGFYPSDIAVEWESNGQPENNYKTTPPVLDSDGSFFLYSWLTVDKSRWQQGNVFSCSVMHEALHNHYTQKSLSLSPG
light: DIQMTQSPSSVSASVGDRVTITCRASQGISSWLAWYQQKPGKAPKLLIYAASSLQSGVPSRFSGSGSGTDFTLTISSLQPEDFATYYCQQGVSFPRTFGGGTKVEIKRTVAAPSVFIFPPSDEQLKSGTASVVCLLNNFYPREAKVQWKVDNALQSGNSQESVTEQDSKDSTYSLSSTLTLSKADYEKHKVYACEVTHQGLSSPVTKSFNRGEC
notes: F3' format heterodimer of three chains; human IgG1 Fc with EW-RVT and Y349C/S354C mutations; also called AB0089 Lot AB0089-002; CLEC12A TriNKET AB0089
Kd [1]: 797 nM | koff [1]: 0.135 s⁻¹ | kon [1]: 169000 M⁻¹ s⁻¹ | Kd [2]: 322 nM | koff [2]: 0.0278 s⁻¹ | kon [2]: 86400 M⁻¹ s⁻¹ | EC50, KHYG-1-CD16aV cytotoxicity assay; after 4 wks 40C in HST pH 6.0 [3]: 0.17 nM | EC50, KHYG-1-CD16aV cytotoxicity assay; control sample [3]: 0.16 nM | Kd [4]: 350 nM | koff [4]: 0.0279 s⁻¹ | kon [4]: 79400 M⁻¹ s⁻¹ | Kd [5]: 336 nM and 343 nM and 321 nM | koff [5]: 0.0294 s⁻¹ and 0.0264 s⁻¹ and 0.0272 s⁻¹ | kon [5]: 87600 M⁻¹ s⁻¹ and 77000 M⁻¹ s⁻¹ and 84600 M⁻¹ s⁻¹ | kon [6]: 1.03e+07 M⁻¹ s⁻¹

B2: AB0192 TriNKET (other)
chain: EVQLVESGGGVVQPGGSLRLSCAASGFTFNAFGMHWVRQAPGKCLEWVAFISSGSTSIYYANTVKGRFTISRDNSKNTLYLQMNSLRAEDTAVYYCARDGYPTGGAMDYWGQGTSVTVSSGGGGSGGGGSGGGGSGGGGSDIQMTQSPSSLSASVGDRVTITCKASQDIYNYLSWFQQKPGKAPKPLIYRANILVSGVPSRFSGSGSGQDYTFTISSLQPEDIATYYCLQFDAFPFTFGCGTKLEIKGSDKTHTCPPCPAPELLGGPSVFLFPPKPKDTLMISRTPEVTCVVVDVSHEDPEVKFNWYVDGVEVHNAKTKPREEQYNSTYRVVSVLTVLHQDWLNGKEYKCKVSNKALPAPIEKTISKAKGQPREPRVYTLPPCRDELTKNQVSLTCLVKGFYPSDIAVEWESNGQPENNYKTTPPVLVSDGSFTLYSKLTVDKSRWQQGNVFSCSVMHEALHNHYTQKSLSLSPG
heavy: EVQLVESGGGLVKPGGSLRLSCAASGFTFSSYSMNWVRQAPGKGLEWVSSISSSSSYIYYADSVKGRFTISRDNAKNSLYLQMNSLRAEDTAVYYCARGAPIGAAAGWFDPWGQGTLVTVSSASTKGPSVFPLAPSSKSTSGGTAALGCLVKDYFPEPVTVSWNSGALTSGVHTFPAVLQSSGLYSLSSVVTVPSSSLGTQTYICNVNHKPSNTKVDKKVEPKSCDKTHTCPPCPAPELLGGPSVFLFPPKPKDTLMISRTPEVTCVVVDVSHEDPEVKFNWYVDGVEVHNAKTKPREEQYNSTYRVVSVLTVLHQDWLNGKEYKCKVSNKALPAPIEKTISKAKGQPREPQVCTLPPSRDELTENQVSLTCLVKGFYPSDIAVEWESNGQPENNYKTTPPVLDSDGSFFLYSWLTVDKSRWQQGNVFSCSVMHEALHNHYTQKSLSLSPG
light: DIQMTQSPSSVSASVGDRVTITCRASQGISSWLAWYQQKPGKAPKLLIYAASSLQSGVPSRFSGSGSGTDFTLTISSLQPEDFATYYCQQGVSFPRTFGGGTKVEIKRTVAAPSVFIFPPSDEQLKSGTASVVCLLNNFYPREAKVQWKVDNALQSGNSQESVTEQDSKDSTYSLSSTLTLSKADYEKHKVYACEVTHQGLSSPVTKSFNRGEC
notes: the condition stands under assay; also called AB0192 Lot AB0192-005
percent surface retention [7]: 103%

B3: F3'-1602 TriNKET (other)
chain: QLQLQESGPGLVKPSETLSLTCTVSGFSLTNYGLHWIRQPPGKCLEWIGVIWSGGKTDYNPSLKSRVTISKDTSKNQFSLKLSSVQAADTAVYYCAKYDYDDSLDYWGQGTLVTVSSGGGGSGGGGSGGGGSGGGGSDIQMTQSPSSLSASVGDRVTITCHASQNINFWLSWYQQKPGKAPKLLIYEASNLHTGVPSRFSGSGSGTRFTLTISSLQPEDIATYYCQQSHSYPLTFGCGTKLEIKGSDKTHTCPPCPAPELLGGPSVFLFPPKPKDTLMISRTPEVTCVVVDVSHEDPEVKFNWYVDGVEVHNAKTKPREEQYNSTYRVVSVLTVLHQDWLNGKEYKCKVSNKALPAPIEKTISKAKGQPREPRVYTLPPCRDELTKNQVSLTCLVKGFYPSDIAVEWESNGQPENNYKTTPPVLVSDGSFTLYSKLTVDKSRWQQGNVFSCSVMHEALHNHYTQKSLSLSPG
heavy: EVQLVESGGGLVKPGGSLRLSCAASGFTFSSYSMNWVRQAPGKGLEWVSSISSSSSYIYYADSVKGRFTISRDNAKNSLYLQMNSLRAEDTAVYYCARGAPIGAAAGWFDPWGQGTLVTVSSASTKGPSVFPLAPSSKSTSGGTAALGCLVKDYFPEPVTVSWNSGALTSGVHTFPAVLQSSGLYSLSSVVTVPSSSLGTQTYICNVNHKPSNTKVDKKVEPKSCDKTHTCPPCPAPELLGGPSVFLFPPKPKDTLMISRTPEVTCVVVDVSHEDPEVKFNWYVDGVEVHNAKTKPREEQYNSTYRVVSVLTVLHQDWLNGKEYKCKVSNKALPAPIEKTISKAKGQPREPQVCTLPPSRDELTENQVSLTCLVKGFYPSDIAVEWESNGQPENNYKTTPPVLDSDGSFFLYSWLTVDKSRWQQGNVFSCSVMHEALHNHYTQKSLSLSPG
light: DIQMTQSPSSVSASVGDRVTITCRASQGISSWLAWYQQKPGKAPKLLIYAASSLQSGVPSRFSGSGSGTDFTLTISSLQPEDFATYYCQQGVSFPRTFGGGTKVEIKRTVAAPSVFIFPPSDEQLKSGTASVVCLLNNFYPREAKVQWKVDNALQSGNSQESVTEQDSKDSTYSLSSTLTLSKADYEKHKVYACEVTHQGLSSPVTKSFNRGEC
notes: CLEC12A scFv-Fc, NKG2D A49MI Fab-Fc, human IgG1 Fc; also called AB0237
Kd [8]: 1400 nM and 1300 nM and 1700 nM and 1200 nM | fold lower EC50 than F3'-1295 [9]: ~2 fold
